Reference: patent US20220144930A1

Tests used:
[1] = target: recombinant human VEGF165 protein (human) (UniProt P15692); assay: streptavidin-coated sensor with immobilized biotin-labeled VEGF165; reference Avastin
[2] = target: recombinant human VEGF165 protein (human) (UniProt P15692); assay: ELISA; coated VEGF165 titrated 0.15-3000 ng/mL, antibody fixed at 1 µg/mL (EC50 is of the coating concentration)
[3] = target: recombinant human VEGF165 protein (human) (UniProt P15692); assay: cell-based or functional assay
[4] = target: recombinant human VEGF165 protein (human) (UniProt P15692); assay: streptavidin-coated sensor with immobilized biotin-labeled VEGF165, antibody at several concentrations

- fold affinity against Avastin [1]: 1.5 fold
- EC50 [2]: 2.42 ng/mL
- EC50(nM), neutralizing VEGF165 at 10 ng/mL, HUVEC proliferation [3]: 0.14 nM
- EC50(nM), neutralizing VEGF165 at 10 ng/mL, HUVEC proliferation (run against Avastin) [3]: 0.13 nM
- EC50(nM), neutralizing VEGF165 at 100 ng/mL, HUVEC proliferation [3]: 1.34 nM
- EC50(nM), neutralizing VEGF165 at 100 ng/mL, HUVEC proliferation (run against Avastin) [3]: 1.36 nM
- EC50(nM), neutralizing VEGF165 at 1000 ng/mL, HUVEC proliferation [3]: 9.67 nM
- EC50(nM), neutralizing VEGF165 at 1000 ng/mL, HUVEC proliferation (run against Avastin) [3]: 9.33 nM
- maximum neutralization rate (%), VEGF165 at 10 ng/mL, HUVEC proliferation [3]: 100%
- maximum neutralization rate (%), VEGF165 at 10 ng/mL, HUVEC proliferation (run against Avastin) [3]: 100%
- maximum neutralization rate (%), VEGF165 at 100 ng/mL, HUVEC proliferation [3]: 102%
- maximum neutralization rate (%), VEGF165 at 100 ng/mL, HUVEC proliferation (run against Avastin) [3]: 102%
- maximum neutralization rate (%), VEGF165 at 1000 ng/mL, HUVEC proliferation [3]: 104%
- maximum neutralization rate (%), VEGF165 at 1000 ng/mL, HUVEC proliferation (run against Avastin) [3]: 104%
- Kd [4]: 0.0195 nM
- koff [4]: 6.7e-06 s⁻¹
- kon [4]: 344000 M⁻¹ s⁻¹
B1: humanized antibody VEGF-H988 (antibody, human IgG1, kappa, V domains shown)
VH: QSVQESGPGLVKPSETLSLTCTVSGIDLSSYAISWVRQPPGKGLEYIGYIWNDLFTYYASWAKGRVTISVDTSKNQVDLKLSSVTAADTAVYFCARGTLGDYGGMDPWGQGTLVTVSS
VL: ELQLTQSPSSLSASVGDRVTITCQSSKFLWQGRRLAWYQQKPGKVPKLLIYGASTLASGVPSRFKGSGSGTDFTLTISSLQPEDVATYYCAGYKSYDGDVVGFGGGTKVEIKR
